Laboratory results published in PMC6962426.

Target: histidine-tagged FcγRIIIa-158V receptor
Assay: Fcγ receptor binding assay
Details: read at the highest antibody concentration, x about 0.0014 (axis unit printed as µg/mL); parent: est. 260; read off a plot

Row | response [RU] | Substance
1 | 55 | IgG1-B (parent) N325D
2 | 17 | IgG1-B (parent) N325Q
